Data on 1 molecule can be found in patent US20060183159A1, “Method for engineering a protein by in vitro coevolution” (priority 2005, published 2006).

Entries after “also recorded” stand apart in the source; their conditions may differ.

A short description of assay [1]: Scatchard analysis of E2 binding to wild-type and mutant hERαLBD proteins. Particulars: n = 2-3, error = range (n = 2) or S.E. (n > 2).
Assay [2] in a line: Competitive binding (RBA) with 2 nM [3H]-E2, testosterone.
Assay [3] can be described thus: Competitive binding (RBA) with 2 nM [3H]-E2, progesterone.
The nature of assay [4]: Competitive binding (RBA) with 2 nM [3H]-E2, corticosterone.
In another assay the test system is progesterone. As to the kind of experiment: Yeast two-hybrid based cell growth assay, response to progesterone. The settings on record: in yeast; saturating ligand concentration 10^−5 M. The method, then: (§1) A yeast two-hybrid based cell growth assay was used to quantify the ligand activity of the wild-type and mutant hERαLBD in 96-well plates (Chen, et al. (2004) supra). Briefly, yeast cells harboring the plasmid containing the target hERαLBD and plasmid pGAD424 SRC-1 were grown to saturation (OD600 4-5) in 2-3 mL minimal medium lacking tryptophan and leucine, and then diluted to OD600 0.002 using minimal medium lacking tryptophan, leucine and histidine. Each well contained 200 μL diluted yeast cells and 0.2 μL of specified ligand dissolved in 100% ethanol (E2, testosterone, and progesterone) or DMSO (corticosterone). The 96-well plates were incubated at 30° C. for 24 hours and the cell density was measured at 600 nm using a SPECTRAMAX® plate reader (Molecular Devices, Sunnyvale, Calif.).

The subject of the next assay is corticosterone. The assay can be described thus: Yeast two-hybrid based cell growth assay, response to corticosterone. The settings on record: in yeast; corticosterone 10^−4 M, 24 hours (up to four days at 30° C.). As to the method:
as §1

The mark [5] stands for this setting: RBA = EC50^E2/EC50^ligand × 100, 2 nM [3H]-E2.

B1: Pg10-1: hERαLBD variant with Glu353Gln, Gly390Asp, His524Asn, Leu536His, Thr585Ser (SEQ ID NOs:11 and 12) (protein)
chain: MTMTLHTKASGMALLHQIQGNELEPLNRPQLKIPLERPLGEVYLDSSKPAVYNYPEGAAYEFNAAAAANAQVYGQTGLPYGPGSEAAAFGSNGLGGFPPLNSVSPSPLMLLHPPPQLSPFLQPHGQQVPYYLENEPSGYTVREAGPPAFYRPNSDNRRQGGRERLASTNDKGSMAMESAKETRYCAVCNDYASGYHYGVWSCEGCKAFFKRSIQGHNDYMCPATNQCTIDKNRRKSCQACRLRKCYEVGMMKGGIRKDRRGGRMLKHKRQRDDGEGRGEVGSAGDMRAANLWPSPLMIKRSKKNSLALSLTADQMVSALLDAEPPILYSEYDPTRPFSEASMMGLLTNLADRQLVHMINWAKRVPGFVDLTLHDQVHLLECAWLEILMIDLVWRSMEHPGKLLFAPNLLLDRNQGKCVEGMVEIFDMLLATSSRFRMMNLQGEEFVCLKSIILLNSGVYTFLSSTLKSLEEKDHIHRVLDKITDTLIHLMAKAGLTLQQQHQRLAQLLLILSHIRHMSNKGMENLYSMKCKNVVPHYDLLLEMLDAHRLHAPTSRGGASVEETDQSHLATAGSTSSHSLQKYYISGEAEGFPATV
Take B1: the dissociation constant Kd in assay [1] was 0.81 ± 0.23 nM; in assay [2] (calculated with Kd^ligand = (Kd^E2/RBA) × 100, read-out: Kd T (testosterone)), 388 nM; in assay [3] (calculated with Kd^ligand = (Kd^E2/RBA) × 100, read-out: Kd Pg (progesterone)), 119 nM; in assay [4] (calculated with Kd^ligand = (Kd^E2/RBA) × 100, read-out: Kd Cs (corticosterone)), 10300 nM. For the same molecule, the “RBA T (testosterone)” value in assay [2] (setting [5]) was 0.21 ± 0.06 (3). In assay [3] (setting [5]), the “RBA Pg (progesterone)” value is given as 0.679 ± 0.021 (3). Further, in assay [4] (setting [5]), the “RBA Cs (corticosterone)” value is on record as 0.008 ± 0.001 (3). The response to progesterone entry in the assay on progesterone is recorded as “responses to progesterone at nanomolar concentrations”. Also, the response to corticosterone result in the assay on corticosterone is “significant responses to corticosterone; also recorded: responded to corticosterone at submillimolar concentrations”.

For orientation: Kd means the concentration at which binding is half-saturated.
